For the assay, the target named is the RBD of spike (depending on domain and variant). In words: ELISA. In general terms: An ELISA detects its analyte on a solid surface through an enzyme-linked reagent.

Sequence of LRRC15-Fc (Q8TF66 22-538): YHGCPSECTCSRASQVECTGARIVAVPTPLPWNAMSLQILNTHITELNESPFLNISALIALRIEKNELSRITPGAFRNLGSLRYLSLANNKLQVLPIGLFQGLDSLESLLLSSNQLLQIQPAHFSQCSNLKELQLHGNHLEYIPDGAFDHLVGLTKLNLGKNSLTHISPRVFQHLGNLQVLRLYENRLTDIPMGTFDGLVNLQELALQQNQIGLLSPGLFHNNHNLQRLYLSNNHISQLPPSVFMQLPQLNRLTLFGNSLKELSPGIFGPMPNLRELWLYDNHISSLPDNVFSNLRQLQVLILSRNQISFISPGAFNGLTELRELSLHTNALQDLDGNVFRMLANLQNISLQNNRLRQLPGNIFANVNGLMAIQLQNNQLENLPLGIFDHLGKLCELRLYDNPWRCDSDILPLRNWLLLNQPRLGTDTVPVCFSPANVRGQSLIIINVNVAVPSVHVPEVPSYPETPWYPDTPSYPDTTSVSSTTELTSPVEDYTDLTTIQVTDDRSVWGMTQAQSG

On to “LRRC15-Fc (from UniProt Q8TF66) (Fc fusion)”, for which the Kd lay within 0.043 to 0.148 µM.

The term Kd denotes a measure of binding affinity in units of concentration. A lower Kd goes with a tighter complex.
